The source of these data is article PMC8109768, “Differential recognition of HIV-stimulated IL-1β and IL-18 secretion through NLR and NAIP signalling in monocyte-derived macrophages” (PLoS Pathogens, 2021).

Test [1] deals with NAIP (human) (UniProt Q13075). The test can be described thus: SPR; BIAcore 3000; NAIP amine-coupled to a CM5 chip; gp41 proteins (500ng, 1μg, 5μg, 10μg) injected at flow rate 10 ml/min for 240 s; flagellin as positive control; BIA EVALUATION 3.0. (In general: In SPR one partner is held on a chip, and binding of the other changes the refractive index at the surface.)
In test [2] the target is NAIP (human) (UniProt Q13075). The test can be described thus: FRET or BRET; FRET between fluorophore-labelled antibodies (Alexa488 donor, Alexa546 acceptor) in monocyte-derived macrophages infected with HIV-1; dequenching of the donor after photobleaching of the acceptor. Background: BRET reads energy transfer from a luciferase to a nearby fluorophore.
A further test concerns the target T1, NAIP (human, UniProt Q13075-1 1-1403).
T1 construct: NAIP, human, endogenous protein; for SPR pulled out of a human cell lysate with an antibody column; also called human NAIP; endogenous NAIP; source: purified from human cell lysate (NHS column with NAIP antibody LS-B455, dialysis, gel filtration); endogenous, human monocyte-derived macrophages (in cells and in lysate)
T1 sequence (looked up): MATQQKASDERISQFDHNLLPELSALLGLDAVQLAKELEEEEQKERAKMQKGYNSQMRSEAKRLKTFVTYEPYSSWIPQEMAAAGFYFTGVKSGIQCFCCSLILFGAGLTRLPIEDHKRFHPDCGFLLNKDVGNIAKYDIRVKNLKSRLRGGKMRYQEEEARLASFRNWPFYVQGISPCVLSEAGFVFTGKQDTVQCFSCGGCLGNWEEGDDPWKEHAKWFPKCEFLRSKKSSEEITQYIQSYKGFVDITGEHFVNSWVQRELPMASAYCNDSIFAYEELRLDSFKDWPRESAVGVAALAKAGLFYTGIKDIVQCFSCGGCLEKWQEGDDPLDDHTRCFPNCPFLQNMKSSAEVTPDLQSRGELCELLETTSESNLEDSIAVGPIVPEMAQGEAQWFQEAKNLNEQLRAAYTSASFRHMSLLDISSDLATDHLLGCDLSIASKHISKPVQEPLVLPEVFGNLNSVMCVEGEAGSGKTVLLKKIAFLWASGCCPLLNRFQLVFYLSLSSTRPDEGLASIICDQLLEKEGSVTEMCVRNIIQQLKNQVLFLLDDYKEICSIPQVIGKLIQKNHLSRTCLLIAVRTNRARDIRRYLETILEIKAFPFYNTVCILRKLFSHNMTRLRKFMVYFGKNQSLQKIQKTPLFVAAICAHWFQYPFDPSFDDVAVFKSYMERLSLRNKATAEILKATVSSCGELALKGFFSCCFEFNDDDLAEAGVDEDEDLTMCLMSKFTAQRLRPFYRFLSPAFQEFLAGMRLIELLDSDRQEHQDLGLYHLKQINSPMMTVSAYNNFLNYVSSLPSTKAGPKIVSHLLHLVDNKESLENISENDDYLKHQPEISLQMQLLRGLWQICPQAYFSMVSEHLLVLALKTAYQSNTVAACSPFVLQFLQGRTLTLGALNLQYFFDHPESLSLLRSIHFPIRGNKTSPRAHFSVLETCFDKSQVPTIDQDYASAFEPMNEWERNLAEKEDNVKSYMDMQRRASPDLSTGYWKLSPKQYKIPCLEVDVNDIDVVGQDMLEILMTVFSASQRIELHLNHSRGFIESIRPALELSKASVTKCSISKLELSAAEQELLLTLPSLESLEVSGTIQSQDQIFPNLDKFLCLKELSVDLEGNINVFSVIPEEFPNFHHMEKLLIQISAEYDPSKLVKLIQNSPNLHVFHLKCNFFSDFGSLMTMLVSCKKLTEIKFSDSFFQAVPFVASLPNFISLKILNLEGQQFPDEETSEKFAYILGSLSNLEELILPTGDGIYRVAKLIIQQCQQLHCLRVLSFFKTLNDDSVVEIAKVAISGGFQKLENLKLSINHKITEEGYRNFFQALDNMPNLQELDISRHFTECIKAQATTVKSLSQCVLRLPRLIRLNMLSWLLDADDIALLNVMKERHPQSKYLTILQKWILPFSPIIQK
Description: SPR; BIAcore 3000; NAIP amine-coupled to a CM5 chip; gp41 proteins (500ng, 1μg, 5μg, 10μg) injected at flow rate 10 ml/min for 240 s; flagellin as positive control; BIA EVALUATION 3.0. To be noted: both partners purified.

The Kd is the free concentration of one partner at which half of the binding sites on the other are occupied at equilibrium, for simple one-to-one binding. The low end stands for tighter binding, the high end for weaker binding. A word on the koff: it is the rate constant with which the complex falls apart. Read a low koff as slow dissociation. Usually kon stands for a measure of how fast the partners come together. A low value points to slow association. On to “Flagellin (from UniProt P06179 1-495) (natural protein)”, for which, in the test with NAIP (human) [1], the dissociation constant (Kd) came to 24.7 pM, the koff was 9.81e-07 s⁻¹ and the on-rate (kon) worked out at 39700 M⁻¹ s⁻¹.

With “HIV-1 glycoprotein 41 (gp41) (natural protein)”, the FRET efficiency E with NAIP (human) [2] was 24%.

Take “gp41 CT (from UniProt P04578 707-856) (domain or fragment)”: in the test with NAIP (human) [1], the dissociation constant Kd worked out at 413 pM, the koff was determined as 9.87e-06 s⁻¹ and the kon is 23900 M⁻¹ s⁻¹.

B1: gp41TM/CT (domain or fragment)
chain: FIMIVGGLVGLRIVFAVLSIVNRVRQGYSPLSFQTHLPTPRGPDRPEGIEEEGGERDRDRSIRLVNGSLALIWDDLRSLCLFSYHRLRDLLLIVTRIVELLGRRGWEALKYWWNLLQYWSQELKNSAVSLLNATAIAVAEGTDRVIEVVQGACRAIRHIPRRIRQGLERILL
For the molecule B1, in the test with NAIP, the affinity, expressed as Kd, was 1590 pM; the koff was 6.91e-05 s⁻¹; the kon is 43500 M⁻¹ s⁻¹.
